The term pKd denotes −log10 of the Kd, conventionally taken in molar units.

Substitutions are numbered along the chain they refer to.

The source of these data is PMC9482650, “Quantitative fragmentomics allow affinity mapping of interactomes” (Nature Communications, 2022).

Among the targets are PDLIM1, O00151; GRIP2_7, Q9C0E4; PARD3_3, Q8TEW0; GRASP, Q7Z6J2; LDB3, O75112; MAGI2_2, Q86UL8; FRMPD3, Q5JV73; SCRIB_1, Q14160; DLG1_2, Q12959; DLG4_2, P78352.
Common to all, as to test: holdup assay
What all share (set-up): key: below the threshold = too weak to quantify, mostly under pKd 3.1 to 4
Holding throughout (conditions): plain residues with an end cap or a label only (N-terminal biotin on a linker: ado-ado)

For a further test, the target named is T1, PTPN13_1, Q12923.
T1 sequence (Q12923 1088-1188, limits assumed, looked up): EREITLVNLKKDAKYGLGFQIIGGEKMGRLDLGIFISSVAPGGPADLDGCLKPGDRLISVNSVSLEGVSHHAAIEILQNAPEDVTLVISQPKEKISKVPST

The target of a further test is T2, LIN7A, O14910.
T2 sequence (O14910 103-200, limits assumed, looked up): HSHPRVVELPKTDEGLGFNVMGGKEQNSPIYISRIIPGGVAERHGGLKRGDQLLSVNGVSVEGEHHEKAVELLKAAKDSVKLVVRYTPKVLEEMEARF

The target in another test is T3, TIAM2, Q8IVF5.
T3 sequence (Q8IVF5 885-986, limits assumed, looked up): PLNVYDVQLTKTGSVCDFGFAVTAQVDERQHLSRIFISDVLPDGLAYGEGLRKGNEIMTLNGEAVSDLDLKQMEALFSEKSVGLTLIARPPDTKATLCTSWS

The next test deals with T4, GRIP1_4, Q9Y3R0.
T4 sequence (Q9Y3R0 467-571, limits assumed, looked up): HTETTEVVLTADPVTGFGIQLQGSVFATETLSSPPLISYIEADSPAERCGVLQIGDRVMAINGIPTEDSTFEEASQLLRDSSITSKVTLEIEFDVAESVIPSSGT

A further test deals with T5, DFNB31_1, Q9P202.
T5 sequence (Q9P202 135-233, limits assumed, looked up): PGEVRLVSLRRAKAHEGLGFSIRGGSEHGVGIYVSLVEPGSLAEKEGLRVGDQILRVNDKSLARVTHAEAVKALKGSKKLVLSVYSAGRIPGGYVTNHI

The target in a further test is T6, SNTA1, Q13424.
T6 sequence (Q13424 82-180, limits assumed, looked up): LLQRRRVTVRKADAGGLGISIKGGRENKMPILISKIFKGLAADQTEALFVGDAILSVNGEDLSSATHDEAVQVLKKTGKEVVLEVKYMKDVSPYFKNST

A further test concerns the target T7, CARD11, Q9BXL7.
T7 sequence (Q9BXL7 662-765, limits assumed, looked up): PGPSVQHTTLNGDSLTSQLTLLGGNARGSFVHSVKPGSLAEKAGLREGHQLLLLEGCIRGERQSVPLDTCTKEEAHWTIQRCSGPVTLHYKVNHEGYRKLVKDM

For the next test, the target named is T8, DFNB31_2, Q9P202.
T8 sequence (Q9P202 274-371, limits assumed, looked up): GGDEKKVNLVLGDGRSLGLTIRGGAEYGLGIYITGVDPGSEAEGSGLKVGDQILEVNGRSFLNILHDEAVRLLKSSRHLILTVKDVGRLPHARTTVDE

For another test, the target named is T9, DVL3, Q92997.
T9 sequence (Q92997 244-331, limits assumed, looked up): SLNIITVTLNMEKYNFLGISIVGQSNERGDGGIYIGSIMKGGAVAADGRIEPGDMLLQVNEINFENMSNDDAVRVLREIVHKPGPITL

Another test addresses T10, APBA1_1, Q02410.
T10 sequence (Q02410 651-752, limits assumed, looked up): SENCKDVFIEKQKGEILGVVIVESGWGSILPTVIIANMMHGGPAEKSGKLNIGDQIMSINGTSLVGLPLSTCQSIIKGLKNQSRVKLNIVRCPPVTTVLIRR

The next test addresses T11, DFNB31_3, Q9P202.
T11 sequence (Q9P202 811-907, limits assumed, looked up): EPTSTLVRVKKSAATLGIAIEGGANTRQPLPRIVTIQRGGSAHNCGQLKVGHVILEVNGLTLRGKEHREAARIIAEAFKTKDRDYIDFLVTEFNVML

The next test concerns the target T12, LIN7B, Q9HAP6.
T12 sequence (Q9HAP6 88-185, limits assumed, looked up): T2 sequence (O14910 103-200, limits assumed, looked up) with S2A, V20I, I35V, E42D, H65Q, K77Q, D78G, K89R

In a further test the target is T13, PDZD7_3, Q9H5P4.
T13 sequence (Q9H5P4 857-944, limits assumed, looked up): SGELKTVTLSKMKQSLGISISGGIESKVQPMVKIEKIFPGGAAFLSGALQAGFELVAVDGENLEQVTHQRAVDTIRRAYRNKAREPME

The target of a further test is T14, HTRA3, P83110.
T14 sequence (P83110 354-453, limits assumed, looked up): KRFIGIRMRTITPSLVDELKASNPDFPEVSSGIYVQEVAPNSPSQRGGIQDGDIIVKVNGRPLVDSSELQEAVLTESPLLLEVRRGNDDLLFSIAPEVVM

Chain of LDB3, O75112 (O75112 1-94): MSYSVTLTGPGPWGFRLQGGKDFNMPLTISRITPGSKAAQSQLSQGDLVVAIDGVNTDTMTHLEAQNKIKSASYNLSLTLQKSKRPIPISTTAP
Chain of GRIP2_7, Q9C0E4 (Q9C0E4 934-1023): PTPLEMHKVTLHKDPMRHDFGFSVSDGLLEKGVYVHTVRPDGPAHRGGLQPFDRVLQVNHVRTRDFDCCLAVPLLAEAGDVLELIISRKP
Chain of PARD3_3, Q8TEW0 (Q8TEW0 582-685): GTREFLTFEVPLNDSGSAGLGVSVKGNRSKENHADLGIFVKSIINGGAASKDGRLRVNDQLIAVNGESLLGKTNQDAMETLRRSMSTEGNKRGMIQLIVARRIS
Chain of GRASP, Q7Z6J2 (Q7Z6J2 96-193): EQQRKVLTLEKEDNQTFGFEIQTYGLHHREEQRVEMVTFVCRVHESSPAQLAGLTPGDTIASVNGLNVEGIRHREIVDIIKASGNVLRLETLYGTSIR
Chain of DLG4_2, P78352 (P78352 155-259): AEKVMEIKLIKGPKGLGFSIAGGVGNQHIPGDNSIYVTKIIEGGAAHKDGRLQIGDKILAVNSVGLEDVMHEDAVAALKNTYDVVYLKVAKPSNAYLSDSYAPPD
Chain of SCRIB_1, Q14160 (Q14160 718-814): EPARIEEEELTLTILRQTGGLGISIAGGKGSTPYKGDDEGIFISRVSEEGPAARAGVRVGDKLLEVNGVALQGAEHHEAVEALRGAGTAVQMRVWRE
Chain of DLG1_2, Q12959 (Q12959 314-412): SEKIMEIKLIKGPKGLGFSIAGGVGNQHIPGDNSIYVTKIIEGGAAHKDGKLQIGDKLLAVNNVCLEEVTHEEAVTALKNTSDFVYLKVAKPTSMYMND
Chain of MAGI2_2, Q86UL8 (Q86UL8 410-522): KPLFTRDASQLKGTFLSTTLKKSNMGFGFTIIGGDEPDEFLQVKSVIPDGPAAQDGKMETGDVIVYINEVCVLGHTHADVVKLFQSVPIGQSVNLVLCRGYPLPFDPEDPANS
Chain of FRMPD3, Q5JV73 (Q5JV73 12-100): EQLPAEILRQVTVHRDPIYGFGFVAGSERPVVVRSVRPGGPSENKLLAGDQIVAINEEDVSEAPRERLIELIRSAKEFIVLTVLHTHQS
Chain of PDLIM1, O00151 (O00151 1-87): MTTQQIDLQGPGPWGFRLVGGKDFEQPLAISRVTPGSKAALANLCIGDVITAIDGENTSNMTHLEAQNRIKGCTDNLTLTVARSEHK

Turning to AEDEEIQTKM [UNC93A, Q86WB7], the pKd entry is on record as “below the threshold” in the test with PTPN13_1, Q12923; “below the threshold” with PDLIM1, O00151; “below the threshold” in the test with LIN7A, O14910; “below the threshold” with GRIP2_7, Q9C0E4; “below the threshold” in the test with TIAM2, Q8IVF5; “below the threshold” with GRIP1_4, Q9Y3R0. For the same molecule, the pKd result with DFNB31_1, Q9P202 is “below the threshold”; with SNTA1, Q13424, “below the threshold”; with CARD11, Q9BXL7 it was “below the threshold”; with PARD3_3, Q8TEW0, “below the threshold”; with DFNB31_2, Q9P202, “below the threshold”; in the test with DVL3, Q92997 it was “below the threshold”. Further, the pKd entry with APBA1_1, Q02410 was “below the threshold”; with DFNB31_3, Q9P202 it was 3.88; in the test with GRASP, Q7Z6J2, “below the threshold”; with LDB3, O75112, “below the threshold”; with MAGI2_2, Q86UL8, “below the threshold”; with FRMPD3, Q5JV73, “below the threshold”. In addition, the pKd entry with LIN7B, Q9HAP6 is recorded as “below the threshold”; with SCRIB_1, Q14160, “below the threshold”; with PDZD7_3, Q9H5P4, “below the threshold”; with DLG1_2, Q12959 it was “below the threshold”; in the test with DLG4_2, P78352 it was “below the threshold”; with HTRA3, P83110, “below the threshold”.

Turning to QNRIITKTDV [SMCHD1, A6NHR9], the pKd entry in the test with PTPN13_1, Q12923 was “below the threshold”; in the test with PDLIM1, O00151, “below the threshold”; with LIN7A, O14910, “below the threshold”; with GRIP2_7, Q9C0E4 it was “below the threshold”; with TIAM2, Q8IVF5, “below the threshold”; in the test with GRIP1_4, Q9Y3R0, “below the threshold”. The pKd entry with DFNB31_1, Q9P202 was “below the threshold”; in the test with SNTA1, Q13424, 3.61; in the test with CARD11, Q9BXL7 it was “below the threshold”; in the test with PARD3_3, Q8TEW0 it was “below the threshold”; with DFNB31_2, Q9P202 it was “below the threshold”; in the test with DVL3, Q92997, “below the threshold”. The pKd entry with APBA1_1, Q02410 is “below the threshold”; with DFNB31_3, Q9P202, “below the threshold”; with GRASP, Q7Z6J2, 3.92; in the test with LDB3, O75112 it was “below the threshold”; with MAGI2_2, Q86UL8 it was 4.08; with FRMPD3, Q5JV73, “below the threshold”. The pKd entry in the test with LIN7B, Q9HAP6 is “below the threshold”; in the test with SCRIB_1, Q14160 it was 3.88; in the test with PDZD7_3, Q9H5P4, 4.13; in the test with DLG1_2, Q12959 it was 4.23; in the test with DLG4_2, P78352, 4.15; in the test with HTRA3, P83110, “below the threshold”.

As to SVISRREWYV [NECTIN3, Q9NQS3], the pKd entry was “below the threshold” with PTPN13_1, Q12923; “below the threshold” with PDLIM1, O00151; 3.58 with LIN7A, O14910; 5.47 with GRIP2_7, Q9C0E4; 5.1 with TIAM2, Q8IVF5; “below the threshold” with GRIP1_4, Q9Y3R0. For the same molecule, the pKd result with DFNB31_1, Q9P202 was “below the threshold”; with SNTA1, Q13424 it was 3.48; in the test with CARD11, Q9BXL7 it was “below the threshold”; with PARD3_3, Q8TEW0 it was 4.75; with DFNB31_2, Q9P202, “below the threshold”; with DVL3, Q92997, 4.69. Moreover, the pKd result with APBA1_1, Q02410 is “below the threshold”; with DFNB31_3, Q9P202, 3.52; in the test with GRASP, Q7Z6J2 it was “below the threshold”; in the test with LDB3, O75112, “below the threshold”; in the test with MAGI2_2, Q86UL8 it was 5.35; in the test with FRMPD3, Q5JV73, 4.06. Further, the pKd entry in the test with LIN7B, Q9HAP6 is “below the threshold”; with SCRIB_1, Q14160, “below the threshold”; with PDZD7_3, Q9H5P4 it was “below the threshold”; with DLG1_2, Q12959, 3.52; with DLG4_2, P78352, 3.75; with HTRA3, P83110 it was 4.99.

Turning to NRVDSKETEC [ADAM17, P78536], the pKd result is “below the threshold” in the test with PTPN13_1, Q12923; “below the threshold” with PDLIM1, O00151; “below the threshold” with LIN7A, O14910; “below the threshold” with GRIP2_7, Q9C0E4; 3.92 with TIAM2, Q8IVF5; “below the threshold” with GRIP1_4, Q9Y3R0. Also, the pKd with DFNB31_1, Q9P202 is 3.72; in the test with SNTA1, Q13424 it was 4.7; with CARD11, Q9BXL7 it was “below the threshold”; with PARD3_3, Q8TEW0 it was “below the threshold”; in the test with DFNB31_2, Q9P202, “below the threshold”; with DVL3, Q92997, “below the threshold”. In addition, the pKd entry with APBA1_1, Q02410 was “below the threshold”; with DFNB31_3, Q9P202 it was 3.92; with GRASP, Q7Z6J2, “below the threshold”; with LDB3, O75112, “below the threshold”; in the test with MAGI2_2, Q86UL8 it was “below the threshold”; in the test with FRMPD3, Q5JV73, “below the threshold”. The pKd in the test with LIN7B, Q9HAP6 was 4.05; with SCRIB_1, Q14160 it was 4.49; with PDZD7_3, Q9H5P4, “below the threshold”; with DLG1_2, Q12959, 4.54; with DLG4_2, P78352, 4.34; with HTRA3, P83110 it was 3.65.
